Experimental data taken from IntAct's records for PubMed 31515488.

B1: Tuftelin-interacting protein 11 (Homo sapiens), Q9UBB9 (parent)
chain: MSLSHLYRDGEGRIDDDDDERENFEITDWDLQNEFNPNRQRHWQTKEEATYGVWAERDSDDERPSFGGKRARDYSAPVNFISAGLKKGAAEEAELEDSDDEEKPVKQDDFPKDFGPRKLKTGGNFKPSQKGFAGGTKSFMDFGSWERHTKGIGQKLLQKMGYVPGRGLGKNAQGIINPIEAKQRKGKGAVGAYGSERTTQSMQDFPVVDSEEEAEEEFQKELSQWRKDPSGSKKKPKYSYKTVEELKAKGRISKKLTAPQKELSQVKVIDMTGREQKVYYSYSQISHKHNVPDDGLPLQSQQLPQSGKEAKAPGFALPELEHNLQLLIDLTEQEIIQNDRQLQYERDMVVNLFHELEKMTEVLDHEERVISNLSKVLEMVEECERRMQPDCSNPLTLDECARIFETLQDKYYEEYRMSDRVDLAVAIVYPLMKEYFKEWDPLKDCTYGTEIISKWKSLLENDQLLSHGGQDLSADAFHRLIWEVWMPFVRNIVTQWQPRNCDPMVDFLDSWVHIIPVWILDNILDQLIFPKLQKEVENWNPLTDTVPIHSWIHPWLPLMQARLEPLYSPIRSKLSSALQKWHPSDSSAKLILQPWKDVFTPGSWEAFMVKNIVPKLGMCLGELVINPHQQHMDAFYWVIDWEGMISVSSLVGLLEKHFFPKWLQVLCSWLSNSPNYEEITKWYLGWKSMFSDQVLAHPSVKDKFNEALDIMNRAVSSNVGAYMQPGARENIAYLTHTERRKDFQYEAMQERREAENMAQRGIGVAASSVPMNFKDLIETKAEEHNIVFMPVIGKRHEGKQLYTFGRIVIYIDRGVVFVQGEKTWVPTSLQSLIDMAK
partner: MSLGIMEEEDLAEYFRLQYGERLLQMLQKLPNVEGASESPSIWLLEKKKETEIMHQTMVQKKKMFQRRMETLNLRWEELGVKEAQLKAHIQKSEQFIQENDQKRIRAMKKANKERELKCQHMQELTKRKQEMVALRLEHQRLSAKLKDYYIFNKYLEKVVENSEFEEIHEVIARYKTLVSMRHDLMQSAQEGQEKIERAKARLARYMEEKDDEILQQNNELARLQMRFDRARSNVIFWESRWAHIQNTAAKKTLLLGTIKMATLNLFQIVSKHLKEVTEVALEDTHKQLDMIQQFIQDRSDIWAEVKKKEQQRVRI
B2: Keratin, type II cytoskeletal 2 epidermal (Homo sapiens), P35908 (parent)
chain: MSCQISCKSRGRGGGGGGFRGFSSGSAVVSGGSRRSTSSFSCLSRHGGGGGGFGGGGFGSRSLVGLGGTKSISISVAGGGGGFGAAGGFGGRGGGFGGGSSFGGGSGFSGGGFGGGGFGGGRFGGFGGPGGVGGLGGPGGFGPGGYPGGIHEVSVNQSLLQPLNVKVDPEIQNVKAQEREQIKTLNNKFASFIDKVRFLEQQNQVLQTKWELLQQMNVGTRPINLEPIFQGYIDSLKRYLDGLTAERTSQNSELNNMQDLVEDYKKKYEDEINKRTAAENDFVTLKKDVDNAYMIKVELQSKVDLLNQEIEFLKVLYDAEISQIHQSVTDTNVILSMDNSRNLDLDSIIAEVKAQYEEIAQRSKEEAEALYHSKYEELQVTVGRHGDSLKEIKIEISELNRVIQRLQGEIAHVKKQCKNVQDAIADAEQRGEHALKDARNKLNDLEEALQQAKEDLARLLRDYQELMNVKLALDVEIATYRKLLEGEECRMSGDLSSNVTVSVTSSTISSNVASKAAFGGSGGRGSSSGGGYSSGSSSYGSGGRQSGSRGGSGGGGSISGGGYGSGGGSGGRYGSGGGSKGGSISGGGYGSGGGKHSSGGGSRGGSSSGGGYGSGGGGSSSVKGSSGEAFGSSVTFSFR
partner: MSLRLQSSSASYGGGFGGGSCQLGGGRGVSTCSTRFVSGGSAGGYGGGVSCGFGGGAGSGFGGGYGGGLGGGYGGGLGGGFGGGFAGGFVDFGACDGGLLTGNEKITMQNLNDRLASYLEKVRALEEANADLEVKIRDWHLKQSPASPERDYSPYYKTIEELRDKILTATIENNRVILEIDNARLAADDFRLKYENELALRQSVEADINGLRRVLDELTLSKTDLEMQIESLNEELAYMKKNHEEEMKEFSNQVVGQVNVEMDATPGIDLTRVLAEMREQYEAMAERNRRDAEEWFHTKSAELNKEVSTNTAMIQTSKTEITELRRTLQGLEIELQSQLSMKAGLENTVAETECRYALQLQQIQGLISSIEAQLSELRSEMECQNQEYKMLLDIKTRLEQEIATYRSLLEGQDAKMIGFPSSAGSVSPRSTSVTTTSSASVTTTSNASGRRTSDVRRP
B3: Ligand of Numb protein X 2 (Homo sapiens), Q8N448 (parent)
chain: MGTTSDEMVSVEQTSSSSLNPLCFECGQQHWTRENHLYNYQNEVDDDLVCHICLQPLLQPLDTPCGHTFCYKCLRNFLQEKDFCPLDRKRLHFKLCKKSSILVHKLLDKLLVLCPFSSVCKDVMQRCDLEAHLKNRCPGASHRRVALERRKTSRTQAEIENENGPTLLDPAGTLSPEADCLGTGAVPVERHLTSASLSTWSEEPGLDNPAFEESAGADTTQQPLSLPEGEITTIEIHRSNPYIQLGISIVGGNETPLINIVIQEVYRDGVIARDGRLLAGDQILQVNNYNISNVSHNYARAVLSQPCNTLHLTVLRERRFGNRAHNHSDSNSPREEIFQVALHKRDSGEQLGIKLVRRTDEPGVFILDLLEGGLAAQDGRLSSNDRVLAINGHDLKYGTPELAAQIIQASGERVNLTIARPGKPQPGNTIREAGNHSSSSQHHTPPPYYSRPSSHKDLTQCVTCQEKHITVKKEPHESLGMTVAGGRGSKSGELPIFVTSVPPHGCLARDGRIKRGDVLLNINGIDLTNLSHSEAVAMLKASAASPAVALKALEVQIVEEATQNAEEQPSTFSENEYDASWSPSWVMWLGLPSTLHSCHDIVLRRSYLGSWGFSIVGGYEENHTNQPFFIKTIVLGTPAYYDGRLKCGDMIVAVNGLSTVGMSHSALVPMLKEQRNKVTLTVICWPGSLV

Variants of: B1
Settings: with ccd42_human CCDC42, Q96M95
S688L was tested, and the “effect of a mutation on the interaction” value was “with no effect”. For R8Q, the “effect of a mutation on the interaction” value was “with no effect”.

Variants of: B2
Settings: with KRT13, P13646
With A517G the “effect of a mutation on the interaction” value was “with no effect”.

Variants of: B3
Settings: with mk09_human MAPK9, P45984
With Y266C the “effect of a mutation on the interaction” value was “with no effect”. In the case of V145I, the “effect of a mutation on the interaction” value is reported as “with no effect”. In the case of S141A, the “effect of a mutation on the interaction” value is reported as “with no effect”.

Variants of: B3
Settings: with optn_human OPTN
Y266C was tested, and the “effect of a mutation on the interaction” value was “disrupting interaction strength”. For V145I, the “effect of a mutation on the interaction” value was “with no effect”. In the case of S141A, the “effect of a mutation on the interaction” value is reported as “with no effect”.

Variants of: B3
Settings: with tbb5_human TUBB
V145I was tested, and the “effect of a mutation on the interaction” value was “with no effect”.

Variants of: B3
Settings: with at2l2_human PHYKPL
With V145I the “effect of a mutation on the interaction” value was “with no effect”.

Variants of: B3
Settings: with ip6k2_human IP6K2, Q9UHH9
With V145I the “effect of a mutation on the interaction” value was “with no effect”.
